Laboratory results reported in patent publication US20030158100A1 (LUDWIG INSTITUTE FOR CANCER RESEARCH, published 2003).

B1: recombinant human IL-22 (ligand, UniProt Q9GZX6 34-179, looked up)
chain: APISSHCRLDKSNFQQPYITNRTFMLAKEASLADNNTDVRLIGEKLFHGVSMSERCYLMKQVLNFTLEEVLFPQSDRFQPYMQEVVPFLARLSNRLSTCHIEGDDLHIQRNVQKLKDTVKKLGESGEIKAIGELDLLFMSLRNACI
notes: also called IL-TIF
B2: LICR-2-Ig (Fc fusion, murine)
chain: RPRLAPPQNVTLLSQNFSVYLTWLPGLGNPQDVTYFVAYQSSPTRRRWREVEECAGTKELLCSMMCLKKQDLYNKFKGRVRTVSPSSKSPWVESEYLDYLFEVEPAPPVLVLTQTEEILSANATYQLPPCMPPLDLKYEVAFWKEGAGNKTLFPVTPHVTPHGQPVQITLQPAASEHHCLSARTIYTFSVPKYSKFSKPTCFLLEVPEPRIPKPSTPPGSSCPPGNILGGPSVFIFPPKPKDALMISLTPKVTCVVVDVSEDDPDVHVSWFVDNKEVHTAWTQPREAQYNSTFRVVSALPIQHQDWMRGKEFKCKVNNKALPAPIERTISKPKGRAQTPQVYTIPPPREQMSKKKVSLTCLVTNFFSEAISVEWERNGELEQDYKNTPPILDSDGTYFLYSKLTVDTDSWLQGEIFTCSVVHEALHNHHTQKNLSRSPGK
notes: domain: hinge, and the CH2 and CH3 domains; Used as unpurified supernatant of transfected HEK293-EBNA cells
B3: recombinant AK155 (ligand, human, UniProt Q9NPH9 22-171, looked up)
chain: KHKQSSFTKSCYPRGTLSQAVDALYIKAAWLKATIPEDRIKNIRLLKKKTKKQFMKNCQFQEQLLSFFMEDVFGQLQLQGCKKIRFVEDFHSLRQKLSHCISCASSAREMKSITRMKRIFYRIGNKGIYKAISELDILLSWIKKLLESSQ
notes: Coated on the ELISA plate; The assay paragraph says only 'recombinant AK155'
B4: IL-10R-Ig (Fc fusion, UniProt Q13651 22-235, looked up)
chain: HGTELPSPPSVWFEAEFFHHILHWTPIPNQSESTCYEVALLRYGIESWNSISNCSQTLSYDLTAVTLDLYHSNGYRARVRAVDGSRHSNWTVTNTRFSVDEVTLTVGSVNLEIHNGFILGKIQLPRPKMAPANDTYESIFSHFREYEIAIRKVPGNFTFTHKKVKHENFSLLTSGEVGEFCVQVKPSVASRSNKGMWSKEECISLTRQYFTVTN
notes: Control; Used as supernatant of cells transfected with IL-10R-Ig fusion cDNA; The construct is not described; also called IL-10R-Ig fusion; not shown: Ig part of the control fusion is not described

How the values were obtained:
[1] = target: B2; test: ELISA, plate coated with recombinant human IL-22, 50 µl supernatant, anti-murine Ig-peroxidase detection
Method: (§1) Interaction analysis was carried out via ELISA. In brief, plates were coated with either recombinant AK155; Knappe, et al., J. Virol 74:3881-7 (2000), incorporated by reference, recombinant human IL-22, or 0.02 μg/ml of bovine serum albumin, and incubated with the test sample overnight at 4° C. The test substance, in all cases, was mixed in 20 mM Tris glycine buffer containing 30 mM NaCl, pH 9.2. After washing in PBS buffer plus Tween 20 (1×10⁻⁴ v/v), plates were blocked with PBS plus 1% BSA for 4 hours. 50 μl of supernatant derived from cells transfected with LICR-2 or with control supernatant referred to supra were added, and the plates were incubated for 2 hours, at 37° C. Bound LICR-2-Ig was detected using anti-murine Ig polyclonal antibodies coupled to peroxidase. The reaction was developed by adding 100 μl of TMB (1.25 mM), followed by 20 μl of H₂SO₄ (2M) to stop the reaction. Absorbance was measured at 450 nm.

[2] = target: B4; test: ELISA, plate coated with recombinant human IL-22, 50 µl control supernatant, anti-murine Ig-peroxidase detection
Method: as §1

[3] = target: T1, bovine serum albumin (bovine, UniProt P02769 25-607); test: ELISA, plate coated with BSA, 50 µl supernatant, anti-murine Ig-peroxidase detection
T1 construct: Control coating protein; also called BSA
Method: as §1

[4] = target: B4; test: ELISA, plate coated with recombinant AK155, 50 µl control supernatant, anti-murine Ig-peroxidase detection
Method: as §1

[5] = target: T1, bovine serum albumin; test: ELISA, plate coated with BSA, 50 µl control supernatant, anti-murine Ig-peroxidase detection
Method: as §1

T1 sequence (P02769 25-607 limits assumed): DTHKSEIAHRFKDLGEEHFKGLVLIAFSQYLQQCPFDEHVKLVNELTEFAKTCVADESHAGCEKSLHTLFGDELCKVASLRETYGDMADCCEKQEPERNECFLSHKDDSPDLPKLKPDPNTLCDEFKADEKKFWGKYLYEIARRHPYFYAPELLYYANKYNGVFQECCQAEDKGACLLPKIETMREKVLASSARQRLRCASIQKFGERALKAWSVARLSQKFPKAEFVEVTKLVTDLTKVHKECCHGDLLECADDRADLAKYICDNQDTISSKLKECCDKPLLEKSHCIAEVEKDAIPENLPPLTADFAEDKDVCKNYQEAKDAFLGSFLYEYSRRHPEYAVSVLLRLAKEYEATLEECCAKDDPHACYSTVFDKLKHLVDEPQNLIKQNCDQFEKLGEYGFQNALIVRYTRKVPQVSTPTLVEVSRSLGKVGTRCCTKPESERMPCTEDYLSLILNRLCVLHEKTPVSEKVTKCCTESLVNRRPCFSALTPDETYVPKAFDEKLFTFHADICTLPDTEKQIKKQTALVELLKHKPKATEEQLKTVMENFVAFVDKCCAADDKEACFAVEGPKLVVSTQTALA

B1: no binding [1]; no binding [2].

B2: no binding (tested: 0.02 µg/ml BSA (coating)) [3].

B3: no binding [4].

B4: no binding (tested: 0.02 µg/ml BSA (coating)) [5].
